Data reported in paper PMC7476737, “Targeting 14-3-3ε-CDC25A interactions to trigger apoptotic cell death in skin cancer” (Oncotarget, 2020).
[ ]: non-standard residue; d: D form. pT = C[C@@H](OP(=O)(O)O)[C@H](N)C(=O)O; pS = N[C@@H](COP(=O)(O)O)C(=O)O

B1: pS peptide (173-186 fragment of human CDC25A with phospho-Ser178) (peptide, UniProt P30304 173-186, looked up)
peptide: Ac-TQRQN[pS]APARMLSS-NH2
SMILES: CSCC[C@H](NC(=O)[C@H](CCCNC(=N)N)NC(=O)[C@H](C)NC(=O)[C@@H]1CCCN1C(=O)[C@H](C)NC(=O)[C@H](COP(=O)(O)O)NC(=O)[C@H](CC(N)=O)NC(=O)[C@H](CCC(N)=O)NC(=O)[C@H](CCCNC(=N)N)NC(=O)[C@H](CCC(N)=O)NC(=O)[C@@H](NC(C)=O)[C@@H](C)O)C(=O)N[C@@H](CC(C)C)C(=O)N[C@@H](CO)C(=O)N[C@@H](CO)C(N)=O
B2: pT peptide (501-515 fragment of human CDC25A with phospho-Thr507) (peptide, UniProt P30304 501-515, looked up)
peptide: Ac-FRTKSR[pT]WAGEKSKR-NH2
SMILES: CC(=O)N[C@@H](Cc1ccccc1)C(=O)N[C@@H](CCCNC(=N)N)C(=O)N[C@H](C(=O)N[C@@H](CCCCN)C(=O)N[C@@H](CO)C(=O)N[C@@H](CCCNC(=N)N)C(=O)N[C@H](C(=O)N[C@@H](Cc1c[nH]c2ccccc12)C(=O)N[C@@H](C)C(=O)NCC(=O)N[C@@H](CCC(=O)O)C(=O)N[C@@H](CCCCN)C(=O)N[C@@H](CO)C(=O)N[C@@H](CCCCN)C(=O)N[C@@H](CCCNC(=N)N)C(N)=O)[C@@H](C)OP(=O)(O)O)[C@@H](C)O

Molecular target: T1, 14-3-3ε (human (endogenous in SCC12B.2 and nHEK), UniProt P62258 1-255)
T1 sequence (looked up): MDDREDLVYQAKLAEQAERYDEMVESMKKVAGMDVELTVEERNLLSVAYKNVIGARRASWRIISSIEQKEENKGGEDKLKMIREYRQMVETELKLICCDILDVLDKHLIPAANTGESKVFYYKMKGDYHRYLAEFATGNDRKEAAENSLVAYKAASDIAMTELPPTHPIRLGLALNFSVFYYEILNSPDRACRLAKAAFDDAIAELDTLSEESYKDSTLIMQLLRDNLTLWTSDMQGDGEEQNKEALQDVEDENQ
Test: cell-based or functional assay

| Binder | IC50 of SCC12B.2 cell viability (neutral red assay, 0-75 μM peptide, 96 h); the pair blocked is 14-3-3ε with CDC25A [µM] |
| --- | --- |
| B1 | 29 |
| B2 | 22.6 |
